T1: Recombinant Human Serpin B9/SERPINB9 (C-6His) (Novoprotein, CJ32), P50453
T1 chain: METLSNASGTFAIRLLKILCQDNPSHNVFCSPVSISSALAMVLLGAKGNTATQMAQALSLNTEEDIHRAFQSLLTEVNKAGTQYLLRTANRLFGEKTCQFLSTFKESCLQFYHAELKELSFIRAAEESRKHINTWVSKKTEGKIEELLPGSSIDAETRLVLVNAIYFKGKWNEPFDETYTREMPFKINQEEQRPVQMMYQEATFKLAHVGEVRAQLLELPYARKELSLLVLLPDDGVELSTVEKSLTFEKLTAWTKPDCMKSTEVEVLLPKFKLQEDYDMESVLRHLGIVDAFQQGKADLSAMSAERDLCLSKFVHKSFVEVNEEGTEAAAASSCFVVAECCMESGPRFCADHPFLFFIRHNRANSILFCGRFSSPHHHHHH


Target: T1, Recombinant Human Serpin B9/SERPINB9 …

Protein | protease activity (cleavage of Ac-IEPD-pNA, absorbance at 405 nm) after 1 h at 37 C with 0.5 uM PI-9, relative to wild-type granzyme B
granzyme B variant K44F, L46E, K155P, K172L, S175I, K200R (protein) IIGGHEAKPHSRPYMAYLMIWDQFSEKRCGGFLIRDDFVLTAAHCWGSSINVTLGAHNIKEQEPTQQFIPVKRPIPHPAYNPKNFSNDIMLLQLERKAKRTRAVQPLRLPSNKAQVKPGQTCSVAGWGQTAPLGPHSHTLQEVKMTVQEDRLCEIDLRHYYDSTIELCVGDPEIKKTSFRGDSGGPLVCNKVAQGIVSYGRNNGMPPRACTKVSSFVHWIKKTMKRY | the variants maintained high protease activity even in the presence of inhibitors
granzyme B variant K44L, R48K, K155P, K172L, S175I, K200R (protein) IIGGHEAKPHSRPYMAYLMIWDQLSLKKCGGFLIRDDFVLTAAHCWGSSINVTLGAHNIKEQEPTQQFIPVKRPIPHPAYNPKNFSNDIMLLQLERKAKRTRAVQPLRLPSNKAQVKPGQTCSVAGWGQTAPLGPHSHTLQEVKMTVQEDRLCEIDLRHYYDSTIELCVGDPEIKKTSFRGDSGGPLVCNKVAQGIVSYGRNNGMPPRACTKVSSFVHWIKKTMKRY | the variants maintained high protease activity even in the presence of inhibitors
granzyme B variant K44L, L46F, K155P, K172L, S175I, K200R (protein) IIGGHEAKPHSRPYMAYLMIWDQLSFKRCGGFLIRDDFVLTAAHCWGSSINVTLGAHNIKEQEPTQQFIPVKRPIPHPAYNPKNFSNDIMLLQLERKAKRTRAVQPLRLPSNKAQVKPGQTCSVAGWGQTAPLGPHSHTLQEVKMTVQEDRLCEIDLRHYYDSTIELCVGDPEIKKTSFRGDSGGPLVCNKVAQGIVSYGRNNGMPPRACTKVSSFVHWIKKTMKRY | the variants maintained high protease activity even in the presence of inhibitors
granzyme B variant K44F, L46I, K155P, K172L, S175I, K200R (protein) IIGGHEAKPHSRPYMAYLMIWDQFSIKRCGGFLIRDDFVLTAAHCWGSSINVTLGAHNIKEQEPTQQFIPVKRPIPHPAYNPKNFSNDIMLLQLERKAKRTRAVQPLRLPSNKAQVKPGQTCSVAGWGQTAPLGPHSHTLQEVKMTVQEDRLCEIDLRHYYDSTIELCVGDPEIKKTSFRGDSGGPLVCNKVAQGIVSYGRNNGMPPRACTKVSSFVHWIKKTMKRY | the variants maintained high protease activity even in the presence of inhibitors
granzyme B variant K44L, R48E, K155P, K172L, S175I, K200R (protein) IIGGHEAKPHSRPYMAYLMIWDQLSLKECGGFLIRDDFVLTAAHCWGSSINVTLGAHNIKEQEPTQQFIPVKRPIPHPAYNPKNFSNDIMLLQLERKAKRTRAVQPLRLPSNKAQVKPGQTCSVAGWGQTAPLGPHSHTLQEVKMTVQEDRLCEIDLRHYYDSTIELCVGDPEIKKTSFRGDSGGPLVCNKVAQGIVSYGRNNGMPPRACTKVSSFVHWIKKTMKRY | the variants maintained high protease activity even in the presence of inhibitors
granzyme B variant K44F, R48K, K155P, K172L, S175I, K200R (protein) IIGGHEAKPHSRPYMAYLMIWDQFSLKKCGGFLIRDDFVLTAAHCWGSSINVTLGAHNIKEQEPTQQFIPVKRPIPHPAYNPKNFSNDIMLLQLERKAKRTRAVQPLRLPSNKAQVKPGQTCSVAGWGQTAPLGPHSHTLQEVKMTVQEDRLCEIDLRHYYDSTIELCVGDPEIKKTSFRGDSGGPLVCNKVAQGIVSYGRNNGMPPRACTKVSSFVHWIKKTMKRY | the variants maintained high protease activity even in the presence of inhibitors
granzyme B variant K44L, L46I, K155P, K172L, S175I, K200R (protein) IIGGHEAKPHSRPYMAYLMIWDQLSIKRCGGFLIRDDFVLTAAHCWGSSINVTLGAHNIKEQEPTQQFIPVKRPIPHPAYNPKNFSNDIMLLQLERKAKRTRAVQPLRLPSNKAQVKPGQTCSVAGWGQTAPLGPHSHTLQEVKMTVQEDRLCEIDLRHYYDSTIELCVGDPEIKKTSFRGDSGGPLVCNKVAQGIVSYGRNNGMPPRACTKVSSFVHWIKKTMKRY | the variants maintained high protease activity even in the presence of inhibitors
granzyme B variant K44L, L46E, K155P, K172L, S175I, K200R (protein) IIGGHEAKPHSRPYMAYLMIWDQLSEKRCGGFLIRDDFVLTAAHCWGSSINVTLGAHNIKEQEPTQQFIPVKRPIPHPAYNPKNFSNDIMLLQLERKAKRTRAVQPLRLPSNKAQVKPGQTCSVAGWGQTAPLGPHSHTLQEVKMTVQEDRLCEIDLRHYYDSTIELCVGDPEIKKTSFRGDSGGPLVCNKVAQGIVSYGRNNGMPPRACTKVSSFVHWIKKTMKRY | the variants maintained high protease activity even in the presence of inhibitors
granzyme B variant K44F, L46F, K155P, K172L, S175I, K200R (protein) IIGGHEAKPHSRPYMAYLMIWDQFSFKRCGGFLIRDDFVLTAAHCWGSSINVTLGAHNIKEQEPTQQFIPVKRPIPHPAYNPKNFSNDIMLLQLERKAKRTRAVQPLRLPSNKAQVKPGQTCSVAGWGQTAPLGPHSHTLQEVKMTVQEDRLCEIDLRHYYDSTIELCVGDPEIKKTSFRGDSGGPLVCNKVAQGIVSYGRNNGMPPRACTKVSSFVHWIKKTMKRY | the variants maintained high protease activity even in the presence of inhibitors
granzyme B variant K44F, L46Q, K155P, K172L, S175I, K200R (protein) IIGGHEAKPHSRPYMAYLMIWDQFSQKRCGGFLIRDDFVLTAAHCWGSSINVTLGAHNIKEQEPTQQFIPVKRPIPHPAYNPKNFSNDIMLLQLERKAKRTRAVQPLRLPSNKAQVKPGQTCSVAGWGQTAPLGPHSHTLQEVKMTVQEDRLCEIDLRHYYDSTIELCVGDPEIKKTSFRGDSGGPLVCNKVAQGIVSYGRNNGMPPRACTKVSSFVHWIKKTMKRY | the variants maintained high protease activity even in the presence of inhibitors
granzyme B variant K44F, R48E, K155P, K172L, S175I, K200R (protein) IIGGHEAKPHSRPYMAYLMIWDQFSLKECGGFLIRDDFVLTAAHCWGSSINVTLGAHNIKEQEPTQQFIPVKRPIPHPAYNPKNFSNDIMLLQLERKAKRTRAVQPLRLPSNKAQVKPGQTCSVAGWGQTAPLGPHSHTLQEVKMTVQEDRLCEIDLRHYYDSTIELCVGDPEIKKTSFRGDSGGPLVCNKVAQGIVSYGRNNGMPPRACTKVSSFVHWIKKTMKRY | the variants maintained high protease activity even in the presence of inhibitors
granzyme B variant K44L, L46Q, K155P, K172L, S175I, K200R (protein) IIGGHEAKPHSRPYMAYLMIWDQLSQKRCGGFLIRDDFVLTAAHCWGSSINVTLGAHNIKEQEPTQQFIPVKRPIPHPAYNPKNFSNDIMLLQLERKAKRTRAVQPLRLPSNKAQVKPGQTCSVAGWGQTAPLGPHSHTLQEVKMTVQEDRLCEIDLRHYYDSTIELCVGDPEIKKTSFRGDSGGPLVCNKVAQGIVSYGRNNGMPPRACTKVSSFVHWIKKTMKRY | the variants maintained high protease activity even in the presence of inhibitors

Reference: patent publication US20230203108
